Assay results reported in PMC9441717 (The Journal of Cell Biology, 2022).

Columns and labels:
Assay in all cases: pull-down
His-tagged STX7 (1-236) = molecular target: T1, His-tagged STX7 (1-236) (human, UniProt O15400 1-236)
T1 sequence: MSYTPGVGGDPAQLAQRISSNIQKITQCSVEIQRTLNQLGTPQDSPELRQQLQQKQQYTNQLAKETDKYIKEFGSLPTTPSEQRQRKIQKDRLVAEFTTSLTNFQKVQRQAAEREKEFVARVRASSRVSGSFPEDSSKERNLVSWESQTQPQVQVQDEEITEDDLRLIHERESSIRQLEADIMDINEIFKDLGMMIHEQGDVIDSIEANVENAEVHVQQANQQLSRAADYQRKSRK

His-tagged STX8 (1-210) = molecular target: T2, His-tagged STX8 (1-210) (human, UniProt Q9UNK0 1-210)
T2 sequence: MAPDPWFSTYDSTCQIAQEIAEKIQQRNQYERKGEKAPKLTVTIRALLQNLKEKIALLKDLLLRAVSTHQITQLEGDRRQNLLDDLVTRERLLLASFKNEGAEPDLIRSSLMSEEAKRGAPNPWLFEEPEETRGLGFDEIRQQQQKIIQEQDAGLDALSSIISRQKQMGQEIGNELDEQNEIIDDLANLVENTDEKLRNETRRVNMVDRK

His-tagged VTI1B (1-204) = molecular target: T3, His-tagged VTI1B (1-204) (human, UniProt Q9UEU0 1-204)
T3 sequence: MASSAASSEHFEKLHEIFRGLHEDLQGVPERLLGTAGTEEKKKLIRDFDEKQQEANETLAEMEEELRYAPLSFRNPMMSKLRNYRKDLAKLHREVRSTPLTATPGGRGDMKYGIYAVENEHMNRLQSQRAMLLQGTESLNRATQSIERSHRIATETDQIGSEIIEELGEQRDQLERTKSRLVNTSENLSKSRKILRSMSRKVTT

Measured: binding result

B1: GST-tagged VAMP4 (1-115) (domain or fragment)
chain: MPPKFKRHLNDDDVTGSVKSERRNLLEDDSDEEEDFFLRGPSGPRFGPRNDKIKHVQNQVDEVIDVMQENITKVIERGERLDELQDKSESLSDNATAFSNRSKQLRRQMWWRGCK
binds: all assays above
